From article PMC11945409
Several values for one entry are separate records, joined by “and”; a condition that tells them apart may be missing. Identical values can stand only once.

Experiments:
[1] = molecular target: insertion protein gp34 of siphophage T1 (phage T1 (ATCC 11303-B1)); assay: cryo-EM structure; tail tip of purified mature T1 virions (laboratory-adapted, no lateral fibers); 6.1 Å, after local refinement 4.3 Å, threefold symmetry imposed
[2] = molecular target: central fiber protein gp33 of siphophage T1 (phage T1 (ATCC 11303-B1)); assay: as above
[3] = molecular target: tail tube protein (TTP) gp41 of siphophage T1 (phage T1 (ATCC 11303-B1)); assay: cryo-EM structure; tail tube of purified mature T1 virions; 4.1 Å, sixfold symmetry imposed
[4] = molecular target: portal protein gp52 of siphophage T1 (phage T1 (ATCC 11303-B1)); assay: cryo-EM structure; head-connector complex of purified mature T1 virions; asymmetric reconstruction 8 Å; local reconstruction of the portal-adaptor complex 3.6 Å (twelvefold symmetry) and of the stopper-terminator-tube complex 3.6 Å (sixfold symmetry)
[5] = molecular target: tail terminator protein gp42 of siphophage T1 (phage T1 (ATCC 11303-B1)); assay: as above
[6] = molecular target: distal tail protein gp37 of siphophage T1 (phage T1 (ATCC 11303-B1)); assay: cryo-EM structure; tail tip of purified mature T1 virions (laboratory-adapted, no lateral fibers); 6.1 Å, after local refinement 4.3 Å, threefold symmetry imposed
[7] = molecular target: adaptor protein gp45 of siphophage T1 (phage T1 (ATCC 11303-B1)); assay: cryo-EM structure; head-connector complex of purified mature T1 virions; asymmetric reconstruction 8 Å; local reconstruction of the portal-adaptor complex 3.6 Å (twelvefold symmetry) and of the stopper-terminator-tube complex 3.6 Å (sixfold symmetry)
[8] = molecular target: major capsid protein (MCP) gp47 of siphophage T1 (phage T1 (ATCC 11303-B1)); assay: cryo-EM structure; icosahedral head of purified mature T1 virions (assembled in infected E. coli) in phage buffer (50 mM NaCl, 10 mM MgCl2, 10 mM Tris-HCl, pH 7.6); icosahedral reconstruction 4 Å, local reconstruction of the fivefold region 3.5 Å
[9] = molecular target: stopper protein gp44 of siphophage T1 (phage T1 (ATCC 11303-B1)); assay: cryo-EM structure; head-connector complex of purified mature T1 virions; asymmetric reconstruction 8 Å; local reconstruction of the portal-adaptor complex 3.6 Å (twelvefold symmetry) and of the stopper-terminator-tube complex 3.6 Å (sixfold symmetry)
[10] = molecular target: cement protein (CP) gp48 of siphophage T1 (phage T1 (ATCC 11303-B1)); assay: cryo-EM structure; icosahedral head of purified mature T1 virions (assembled in infected E. coli) in phage buffer (50 mM NaCl, 10 mM MgCl2, 10 mM Tris-HCl, pH 7.6); icosahedral reconstruction 4 Å, local reconstruction of the fivefold region 3.5 Å
[11] = molecular target: cement protein (CP) gp49 of siphophage T1 (phage T1 (ATCC 11303-B1)); assay: as above

**Q.** Which stoichiometry N [1] does the source give for “insertion protein gp34 of siphophage T1 (natural protein)” here?
**A.** The stoichiometry N was 3.

**Q.** How did the stoichiometry N [2] turn out when “central fiber protein gp33 of siphophage T1 (natural protein)” was run?
**A.** Its stoichiometry N is 3.

**Q.** How did the stoichiometry N [3] turn out when “tail tube protein (TTP) gp41 of siphophage T1 (natural protein)” was run?
**A.** Its stoichiometry N is 6.

**Q.** Which stoichiometry N [4] does the source give for “portal protein gp52 of siphophage T1 (natural protein)” here?
**A.** The stoichiometry N was 12.

**Q.** Which stoichiometry N [5] does the source give for “tail terminator protein gp42 of siphophage T1 (natural protein)” here?
**A.** The stoichiometry N was 6.

**Q.** Which stoichiometry N [6] does the source give for “distal tail protein gp37 of siphophage T1 (natural protein)” here?
**A.** Its stoichiometry N is 6.

**Q.** How did the stoichiometry N [7] turn out when “adaptor protein gp45 of siphophage T1 (natural protein)” was run?
**A.** Its stoichiometry N is 12.

**Q.** With “major capsid protein (MCP) gp47 of siphophage T1 (natural protein)” as the substance, how does the stoichiometry N [8] read?
**A.** Its stoichiometry N is 5 and 6.

**Q.** What about the stoichiometry N (copies in the head) [8] of the same substance?
**A.** The stoichiometry N (copies in the head) was 415.

**Q.** “stopper protein gp44 of siphophage T1 (natural protein)” was tested. Which stoichiometry N [9] did it give?
**A.** Its stoichiometry N is 6.

**Q.** How did the stoichiometry N (gp49 per gp48) [10] turn out when “cement protein (CP) gp49 of siphophage T1 (natural protein)” was run?
**A.** The stoichiometry N (gp49 per gp48) was 2.

**Q.** What about the stoichiometry N [11] of the same substance?
**A.** Its stoichiometry N is 3.
